Reference: a protein production outcome set (Wang et al. 2014)

Experiment: label from the status in PepcDB records
In the case of “VNEIVVNPNATLDWQLALRQAAGKTDLARDMLQMLLDFLPEVRNKVEEQLVGENPEGLVDLIHKLHGSCGYSGVPRMKNLCQLIEQQLRSGTKEEDLEPELLELLDEMDNVAREASKILG”, the protein production was “not failed”. For “VNELLHLAPNVWPRNTTRDEVGVVCIAGIPLTQLAQEYGTPLFVIDEDDFRSRCRETAAAFGSGANVHYAAKAFLCSEVARWISEEGLCLDVCTGGELAVALHASFPPERITLHGNNKSVSELTAAVKAGVGHIVVDSMTEIERLDAIAGEAGIVQDVLVRLTVGVEAHTHEFISTAHEDQKFGLSVASGAAMAAVRRVFATDHLRLVGLHSHIGSQIFDVDGFELAAHRVIGLLRDVVGEFGPEKTAQIATVDLGGGLGISYLPSDDPPPIAELAAKLGTIVSDESTAVGLPTPKLVVEPGRAIAGPGTITLYEVGTVKDVDVSATAHRRYVSVDGGMSDNIRTALYGAQYDVRLVSRVSDAPPVPARLVGKHCESGDIIVRDTWVPDDIRPGDLVAVAATGAYCYSLSSRYNMVGRPAVVAVHAGNARLVLRRETVDDLLSLEVR”, the protein production was “not failed”. With “VNFEVKDQTLMMELVPERLRGETATFDIEADGKVYVEKGRRVTARHIRQLEKDGVNFIEVPVEYIVGKVSAKDYVNEATGELIITANQEISLEALANLSQAG” the protein production was “not failed”. In the case of “VNNTKVTNSEESLSVVDDFVKSVWPTAKQAASLIGLDPKLLVAQAALETGWGRFVTRDADGSSSNNLFNIKTGSHSEVESIQVKTTEYIADTPIKINASFRKYPSIEHSFHDYVSLIKGSERYQMALANAENPEIFVSELNKAGYATDPNYSNKILSIYHGDE”, the protein production was “failed”. For “VQPLATQCFQLSNMFNPQTEEEVGWDTEIKDDVIEECNKHGGVIHIYVDKNSAQGNVYVKCPSIAAAIAAVNALHGRWFAGKMITAAYVPLPTYHNLFPDSMTATQLLVPSRR”, the protein production was “not failed”. With “VRQKGIDIIFMLDISNSMLARDTAPDRLTHAKTELLQISRRLGDGRKALLLFAGTPVVQCPLTDDEEDFEILLDMAAPELITTQGTDYRRAFDAALKLTNSGGELSSNETVLVLASDGEDHGNDLGDIATAMKTRGVHLHVIGVGGVQPVPIPMQGGPKRDQQGKIVLTSFKPEPLASLIKTAKGKFYYSRPDAPVHDAVADDIAAEAAEARW” the protein production was “failed”. With “VRVLSYDKEKLNWLYKDPQGLVQGPFSLTQLKAWSDAEYFTKQFRVWMTGESMESAVLLTDVLRL” the protein production was “not failed”. With “VTVTDDYLANNVDYASGFKGPLPMPPSKHIAIVACMDARLDVYRMLGIKEGEAHVIRNAGCVVTDDVIRSLAISQRLLGTREIILLHHTDCGMLTFTDDDFKRAIQDETGIRPTWSPESYPDAVEDVRQSLRRIEVNPFVTKHTSLRGFVFDVATGKLNEVTP” the protein production was “not failed”. For “VYTLMTTRSHDQYNTTLYGLDDRYRGVFGQRRVLFMNEQDIQEAGFQADQWVDIESIYSDGLKRIVRSFKIVPYNIPRGSMAAYYPETNPLVALSSHDKYAKIPASKSIPVILHPGQAPEHFNLAAPVDPEHANG”, the protein production was “failed”. With “YATGNKKNISGSVEKITELGMNKDQITNPLEAIRGRVPGLTIQKGTNGPAALDAVRLRGTTSLTSGNDPLIIVDGVFGDLSMLTSIYPTDIESFTILKDASETAQYGSRGASGVIEITTKKGIRG” the protein production was “failed”. In the case of “YAYSASLRVRQLGKPFMDEFSRRTNTTVSLTCRDRLSMIHVDSSRPPEVASLRMEPGLRLPLATSAAGRAYLAATPKIERDHLLGEVAKKLGDEWPALEKSLEDSFREYEEFGFCLSLGEWDRNVNGAGVPLRLADGSIMALTCGAPSFQLSSEKLESSLAHQLVMLARDLESLGV”, the protein production was “failed”. For “YCEFLNNELRAHASDLLPTAPVPTMMLDRAWDEATLHNITQLIYDVRKDDALFRREISKPGAFDLMRKNYWDRREYSAVTLVGNETCNLAPLAELGFQIEVSQ”, the protein production was “failed”. In the case of “YCKTIPMPDLAYSEISVIGKLIRALPEPCALHLANSSTVRYAQLFTVPPQVEICCNRGVNGIEGSLSTAIGYAAASSKLNFIIIGDLSFFYDMNALWNQNYGANIRILLLNNEGGEIFHTLPGMDKSSRSREFITAEHYTTAKGWAEERGFIYMKVTGEEELEEAMQPFTSPETRMQPMLLEVFTDKEKD”, the protein production was “failed”. In the case of “YCKTIPMPDLAYSEISVIGKLIRALPEPCALHLANSSTVRYAQLFTVPPQVEICCNRGVNGIEGSLSTAIGYAAASSKLNFIIIGDLSFFYDMNALWNQNYGANIRILLLNNEGGEIFHTLPGMDKSSRSREFITAEHYTTAKGWAEERGFIYMKVTGEEELEEAMQPFTSPETRMQPMLLEVFTDKEKDTTLLREYYHGLKNKNE”, the protein production was “failed”. For “YDASPAYYLYTSGSTGTPKCVVLNNRATAHVLQETIDFWGINDKDIHLAATPFHHDMSIFDLMAPLSVGGTLVVPTLEEAKSAVAWAELIERYQVSIWCTVPAMVDMLLTSAEPSQLQSIRLINQGGDYVKPSVVQKLREILPNTRLISIGGPTETTIWSIWHEITSEDI”, the protein production was “failed”. With “YISAVQAGDTESFAPLVERYSDMLYALLCRLLQDEEDAADLLQDTFVKAFRHIGRFDGRSSFSTWIYRIAYNEAIDHLRRRKAYVTDRVEELPDVPDEDLEPSGEDPELLQQALDSLPAADKALLLMFYSDDLSVRDIAEVTGMSESNVKVKLHRLRTKLYKMMR” the protein production was “failed”. In the case of “YLASDGKTIIYVGRNNLQNEELTFKMARKEELWFHAKDIPGSHVVISGNLDPSDAVKTDAAELAAYFSQGRLSNLVQVDMIEVKKLNK”, the protein production was “failed”. With “YNPWRNPQNALERRNIVLRLMLEHKMIGDELYQLLSQRPLGVQKKGQISRKYPAFIQTLQADLRRKLGEHKISSLLGA” the protein production was “failed”.
